The assay concerns the target T1, 人心肌肌钙蛋白I (cTnI) (human, UniProt P19429 1-210, limits assumed).
T1 construct: Both are treated here as one molecule; also called cTnI蛋白; cTnI质控品重组蛋白
Kind of assay: BLI (AMC sensor), antibody captured, cTnI recombinant protein in solution.

T1 sequence (P19429 whole entry): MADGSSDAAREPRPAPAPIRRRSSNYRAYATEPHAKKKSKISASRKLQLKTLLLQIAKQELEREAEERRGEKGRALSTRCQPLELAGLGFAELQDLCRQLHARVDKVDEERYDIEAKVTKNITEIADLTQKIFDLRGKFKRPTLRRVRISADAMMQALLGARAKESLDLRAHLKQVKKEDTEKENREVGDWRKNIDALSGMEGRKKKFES

B1: Anti-cTnI 6E3 重组抗体 (WT) (antibody, mouse IgG1, kappa, V domains shown)
VH: EVQLQQSGPEVVKPGASVKISCKASGFIFSGQTMNWVKQSGEKNLEWIGLLNPSDNTTYNNKFKGKATLTVDKSSNTAYMQLLSLTSEDSAVYYCSSFGSWAQGTLVTVSA
VL: DIVLTQSPASLAVSLGQRATISCKASNSIDYEGDSYMNWYQQKPGQSPKLLIFVASLVDSGIPARFSASGSGTDFTLNIHPVEEEDAATYYCQQTYEGPWTFGGGTKLEIKR
notes: also called 样品1的抗体; Anti-cTnI 6E3单克隆抗体
For B1, the Kd was 65.5 nM, the koff worked out at 0.00278 s⁻¹ and the kon was 42500 M⁻¹ s⁻¹.

As a reminder, the Kd is a measure of binding affinity in units of concentration. Usually koff stands for a measure of how fast the partners let go of each other. For orientation: kon means a measure of how fast the partners come together.

For the origin of these results see patent CN111018978A (DONGGUAN PENGZHI BIOTECHNOLOGY CO LTD, dated 2020).
